{"source": "patent US20060166927A1", "about": "“Compounds that bind to the interferon-gamma, preparation method thereof and medicaments containing same” (priority 2002, published 2006)", "origin": "cited, not measured here", "molecules": {"B1": {"name": "γ-IFN: polypeptide comprising, for example, 143 amino acids in humans, which is part of the cytokine family (protein, UniProt P01579 24-161, looked up)", "Interferon gamma": "QDPYVKEAENLKKYFNAGHSDVADNGTLFLGILKNWKEESDRKIMQSQIVSFYFKLFKNFKDDQSIQKSVETIKEDMNVKFFNSNKKKRDDFEKLTNYSVTDLNVQRKAIHELIQVMAELSPAAKTGKRKRSQMLFRG"}}}
{"molecule": "B1", "values": [{"measurement": "proportion of injected γ-IFN rapidly bound by molecules of heparin/heparan sulphate type", "setting": "at the surface of the vascular endothelium", "value": "approximately 90%"}, {"measurement": "cytokine disappearing from the circulating blood", "setting": "intravenous injection, during the first 5 to 10 minutes", "value": 90, "unit": "%"}, {"measurement": "half-life time", "setting": "intravenous injection, first phase of biexponential elimination", "value": "~1", "unit": "min"}, {"measurement": "inactivation in vivo", "setting": "γ-IFN alone", "value": "rapidly inactivated by proteolytic degradation of its C-terminal end"}]}
